# Data reported in patent US20160083466A1 (Regeneron, published 2016).
# T1: rat IL-25 expressed with a C-terminal myc-myc-hexahistidine tag (rat)
# T1 construct: also called Rat IL-25-MMH
# T1 chain: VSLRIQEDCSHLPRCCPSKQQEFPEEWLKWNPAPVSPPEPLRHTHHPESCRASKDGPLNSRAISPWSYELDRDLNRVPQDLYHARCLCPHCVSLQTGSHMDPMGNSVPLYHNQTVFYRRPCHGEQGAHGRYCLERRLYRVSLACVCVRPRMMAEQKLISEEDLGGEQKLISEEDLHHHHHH
# T2: mouse IL-25 expressed with a C-terminal myc-myc-hexahistidine tag (mouse)
# T2 construct: also called Mouse IL-25-MMH; mIL-25-MMH
# T2 chain: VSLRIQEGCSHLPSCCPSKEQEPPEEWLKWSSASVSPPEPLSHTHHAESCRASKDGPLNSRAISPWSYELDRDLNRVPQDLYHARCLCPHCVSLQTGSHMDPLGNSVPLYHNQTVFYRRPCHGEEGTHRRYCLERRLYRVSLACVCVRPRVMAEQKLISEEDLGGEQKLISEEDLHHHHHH
# T3: human IL-25 expressed with a C-terminal myc-myc-hexahistidine tag (human)
# T3 construct: also called hIL-25-MMH; Human IL-25-MMH
# T3 chain: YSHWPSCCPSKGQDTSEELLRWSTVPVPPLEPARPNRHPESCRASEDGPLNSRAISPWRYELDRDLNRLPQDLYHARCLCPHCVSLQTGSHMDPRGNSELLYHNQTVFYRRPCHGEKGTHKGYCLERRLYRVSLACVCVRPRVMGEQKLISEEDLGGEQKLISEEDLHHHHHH
# T4: monkey IL-25 expressed with a C-terminal myc-myc-hexahistidine tag (M. fascicularis (cynomolgus monkey))
# T4 chain: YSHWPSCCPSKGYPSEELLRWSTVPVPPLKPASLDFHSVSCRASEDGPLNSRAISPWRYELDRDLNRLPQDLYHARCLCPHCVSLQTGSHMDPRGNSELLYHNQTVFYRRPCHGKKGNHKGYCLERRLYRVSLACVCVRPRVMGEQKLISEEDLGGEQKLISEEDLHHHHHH
# How the values were obtained:
# [1] = target: T1, rat IL-25 expressed with a C-terminal …; assay: SPR Biacore, antibody captured, 25C;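 as to 100 nM Rat IL-25-MMH Bound (RU): purified anti-IL-25 antibodies were tested by real-time surface plasmon resonance on a Biacore 4000, with rate constants obtained from sensorgram fits to a 1:1 binding model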
# Method: (§1) Equilibrium dissociation constants (KD values) for IL-25 binding to purified anti-IL-25 antibodies were determined using a real-time surface plasmon resonance biosensor assay on a Biacore 4000 instrument (GE Healthcare). […] All the IL-25 reagents were expressed with a C-terminal myc-myc-hexahistidine tag (referred to herein as “IL-25-MMH”). […] Kinetic association (kₐ) and dissociation (kd) rate constants were determined by fitting the real-time sensorgrams to a 1:1 binding model using Scrubber 2.0c curve fitting software.
# [2] = target: T2, mouse IL-25 expressed with a C-terminal …; assay: SPR Biacore, antibody captured, 37C;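 as to 100 nM Monkey IL-25-MMH Bound (RU): biacore 4000 surface plasmon resonance biosensor measuring binding of IL-25-MMH to purified anti-IL-25 antibodies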;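 as to 100 nM Mouse IL-25-MMH Bound (RU): Real-time sensorgrams of IL-25-MMH binding to purified anti-IL-25 antibodies, rate constants obtained by fitting a 1:1 binding model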
# [3] = target: T3, human IL-25 expressed with a C-terminal …; assay: BLI Octet, hIL-25-MMH captured on anti-Penta-His sensor, 25C
# Method: Binding competition between anti-IL-25 monoclonal antibodies was determined using a real time, label-free bio-layer interferometry assay on an Octet QK384 biosensor (Pall ForteBio Corp.).
# The biosensors were washed in HBST kinetics buffer in between every step of the experiment. The real-time binding response was monitored during the course of the experiment and the binding response at the end of every step was recorded.
# [4] = target: T1, rat IL-25 expressed with a C-terminal …; assay: SPR Biacore, antibody captured, 37C;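 as to 100 nM Monkey IL-25-MMH Bound (RU): biacore 4000 surface plasmon resonance biosensor measuring binding of IL-25-MMH to purified anti-IL-25 antibodies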;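 as to 100 nM Mouse IL-25-MMH Bound (RU): Real-time sensorgrams of IL-25-MMH binding to purified anti-IL-25 antibodies, rate constants obtained by fitting a 1:1 binding model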
# Method: as §1
# [5] = target: T2, mouse IL-25 expressed with a C-terminal …; assay: SPR Biacore, antibody captured, 25C;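 as to 100 nM Rat IL-25-MMH Bound (RU): purified anti-IL-25 antibodies were tested by real-time surface plasmon resonance on a Biacore 4000, with rate constants obtained from sensorgram fits to a 1:1 binding model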
# Method: as §1
# [6] = target: T4, monkey IL-25 expressed with a …; assay: cell-based or functional assay
# [7] = target: T3, human IL-25 expressed with a C-terminal …; assay: cell-based or functional assay
# [8] = target: T4, monkey IL-25 expressed with a …; assay: SPR Biacore, antibody captured, 37C;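 as to 100 nM Monkey IL-25-MMH Bound (RU): biacore 4000 surface plasmon resonance biosensor measuring binding of IL-25-MMH to purified anti-IL-25 antibodies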;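 as to 100 nM Mouse IL-25-MMH Bound (RU): Real-time sensorgrams of IL-25-MMH binding to purified anti-IL-25 antibodies, rate constants obtained by fitting a 1:1 binding model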
# Method: as §1
# [9] = target: T3, human IL-25 expressed with a C-terminal …; assay: competition ELISA, 2 nM hIL-25-MMH binding to coated hIL-17RB-hFc
# Method: (§2) Data analysis was performed using a sigmoidal dose-response model within Prism™ software (GraphPad). […] The absorbance values of the wells containing the highest concentration for each antibody were used to determine the percent maximum blockade.
# [10] = target: T3, human IL-25 expressed with a C-terminal …; assay: competition ELISA, 2 nM hIL-25-MMH binding to coated hIL-17RB-hFc; (*) below theoretical bottom of the assay
# Method: as §2
100 nM Rat IL-25-MMH Bound (RU) [1] [RU],100 nM Mouse IL-25-MMH Bound (RU) [2] [RU],50 ug/mL mAb-1 Binding (nm) [3] [nm],100 nM Rat IL-25-MMH Bound (RU) [4] [RU],100 nM Mouse IL-25-MMH Bound (RU) [5] [RU],binding result [5],binding result [1],"IC50, luciferase reporter cells, 12 pM MfIL-25-MMH [6] [M]","IC50, luciferase reporter cells, 5 pM hIL-25-MMH [7] [M]",100 nM Monkey IL-25-MMH Bound (RU) [8] [RU],Kd [8] [nM],koff [8] [s⁻¹],kon [8] [M⁻¹ s⁻¹],t½ [8] [min],% Maximum blocking of 200 nM antibody [9] [%],IC50 [10] [nM],further results,Binder
-1,2,1.42,3,0,no binding (tested: 100 nM),–,–,–,–,–,–,–,–,–,–,–,"H1M11009N (antibody, mouse IgG1, V domains shown, H1M prefix = mouse IgG1 Fc) VH: EVQLVESGGGLVEPGGSLRLSCVASGFTFSNAWMNWVRQAPGKGLEWVGHIERKTDGGTTDFAAPVKGRFTISRDDSKNTLYLQMNSLKTEDTAVYYCTTVGPYSVPFDYWGQGTLVTVSS VL: not shown"
0,2,0.88,2,0,no binding (tested: 100 nM),no binding (tested: 100 nM),3.7e-11,6.3e-11,61,0.0236,7.14e-05,3.03e+06,162,92,0.2,–,"H4H10861P (antibody, human IgG4, V domains shown, H4H prefix = human IgG4 Fc) VH: QVQLQESGPGLVKPSETLSLTCTVSGASISNYYWSWIRQPPGKGLEWIGYIFYSGNTNYNPSLKSRVTISVDTSKNQFSLKLSSVTAADTAVYYCARVRFSDYELNWFDPWGQGTLVTVSS VL: DIVMTQSPDSLAVFLGERATINCRSSQSVFLGSNNKNYLAWYQQKPGQPPKLLIYWASSRESGVPDRFSGSGSGTDFTLTINSLQAEDVAVYYCQQYFITPLTFGGGTKVEIK"
0,2,0.67,1,1,no binding (tested: 100 nM),no binding (tested: 100 nM),3.8e-11,5.6e-11,64,0.0464,0.000165,3.55e+06,70,91,0.23,–,"H4H10901P (antibody, human IgG4, V domains shown, H4H prefix = human IgG4 Fc) VH: QLQLQESGPGLVRPSETLSLTCSVSSGSIRSSNYYWGWIRQPPGKGLEWIGNIYYSGNTFYNPSLKGRVTISVDTSKNQFSLKLSSVTATDTAVYYCARQGYSDYELNWFDPWGQGTLVTVSS VL: DIVMTQSPDSLVLSLGERATFNCKSSQSVLDSSNNKNYLAWYQQKPGQPPKLLIYWASTRESGVPDRFSGSGSGTDFSLTISSLQAEDVALYYCQQFYNSPWTFGQGTKVEIK"
1,2,0.83,1,0,no binding (tested: 100 nM),no binding (tested: 100 nM),3.3e-11,8.4e-11,70,0.0589,0.000172,2.93e+06,67,89,0.24,–,"H4H10862P (antibody, human IgG4, V domains shown, H4H prefix = human IgG4 Fc) VH: QVQLQESGPGLVKPSETLSLTCTVSGGSISSYFWSWIRQAPGKGLEWIGFIDYSGSTNYNPSLKSRVTISVDTSKNQFSLKLNSVTAADTAVYYCARQEIINFELNWFDPWGQGTLVTVSS VL: not shown"
18,27,1.38,20,17,–,–,–,–,–,–,–,–,–,70,–,Kd [1]: 103 nM; koff [1]: 0.0095 s⁻¹; kon [1]: 91800 M⁻¹ s⁻¹; t½ [1]: 1.2 min; Kd [2]: 81.7 nM; koff [2]: 0.00778 s⁻¹; kon [2]: 95300 M⁻¹ s⁻¹; t½ [2]: 1.5 min; Kd [4]: 115 nM; koff [4]: 0.0193 s⁻¹; kon [4]: 168000 M⁻¹ s⁻¹; t½ [4]: 0.6 min; IC50 [9]: 31 nM; Kd [5]: 82.3 nM; koff [5]: 0.00319 s⁻¹; kon [5]: 38800 M⁻¹ s⁻¹; t½ [5]: 4 min,"H2aM10690N (antibody, V domains shown, also called H2M10690N) VH: QVQLVQSGAEVKKPGASVKVSCKASGYTFTSYGISWVRQAPGQGLEWMGWISAYNGNTNYAQKLQGRVTMTTDTSTSTAYMELRSLRSDDTAVYYCARVPITGTTWFDPWGQGTLVTVSS VL: not shown"
0,2,0.81,3,-1,–,no binding (tested: 100 nM),–,1.8e-09,–,–,–,–,–,98,0.43,–,"H2aM11008N (antibody, V domains shown, also called H2M11008N) VH: QVQLQESGPGLVKPSETLSLTCTVSGGSISSHYWSWIRQPPGKGLEWIGFIYYSGSTNFNPSLKSRVTISIDTSKNQFSLKLSSVTAADTAVYYCARHDYNDYELNYFDLWGRGTLASVSS VL: not shown"
0,1,0.7,0,0,–,–,3.9e-11,1.4e-10,72,0.0239,4.18e-05,1.75e+06,276,93,0.2,–,"H4H10883P (antibody, human IgG4, V domains shown, H4H prefix = human IgG4 Fc) VH: QVQLQESGPGLVKSSETLSLTCTVSGGSISSYYWSWIRQPPGKGLEWIGFIYYSGSTNYNPSLKSRVTFSVDTSKNHFSLKLNSVTATDTAVYYCARHYFDSGTYELGPFDYWGQGTLVTVSS VL: DIVMTQSPDSLAVSLGERATINCKSSQNILLTSSNKNYLTWYQQKPGQPPKLLIYWASIRESGVPDRFSGSGSGTDFTLTISSLQAEDVALYFCQQYYITPFTFGPGTKVDIK"
